Experimental data: PMC10364586

Target: PADI4 (peptidyl-arginine deiminase 4), recombinant, dimeric (human) (UniProt Q9UM07)
Test: BLI

Sequence of PADI4 (peptidyl-arginine deiminase 4), recombinant, dimeric (human) (Q9UM07 whole entry): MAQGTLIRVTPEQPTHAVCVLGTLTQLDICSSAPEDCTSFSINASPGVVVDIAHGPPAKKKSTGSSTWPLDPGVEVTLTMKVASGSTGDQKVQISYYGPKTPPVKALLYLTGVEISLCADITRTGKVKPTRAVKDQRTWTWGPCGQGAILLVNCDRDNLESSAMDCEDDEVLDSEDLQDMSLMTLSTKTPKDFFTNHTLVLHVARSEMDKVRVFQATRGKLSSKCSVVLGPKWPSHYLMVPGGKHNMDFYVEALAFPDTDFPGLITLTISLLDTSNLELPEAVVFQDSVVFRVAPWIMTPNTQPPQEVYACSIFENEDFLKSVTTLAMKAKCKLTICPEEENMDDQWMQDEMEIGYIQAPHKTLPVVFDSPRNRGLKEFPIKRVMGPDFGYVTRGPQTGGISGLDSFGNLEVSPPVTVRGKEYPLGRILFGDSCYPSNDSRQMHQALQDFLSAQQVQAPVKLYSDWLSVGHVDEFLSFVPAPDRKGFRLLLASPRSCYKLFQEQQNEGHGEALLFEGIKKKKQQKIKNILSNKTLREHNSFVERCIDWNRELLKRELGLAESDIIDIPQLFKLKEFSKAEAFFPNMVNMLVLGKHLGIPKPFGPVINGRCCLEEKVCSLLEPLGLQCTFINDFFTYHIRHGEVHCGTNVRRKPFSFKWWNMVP

Substance: N-MDM2 derived from GST-tagged N-MDM2, GST-tag removed with thrombin (domain or fragment)
- Kd: 2000 nM
- koff: 0.3 s⁻¹
- kon: 170000 M⁻¹ s⁻¹
